The source of these data is PMC11317896, “Stem lodging Resistance-1 controls stem strength by positively regulating the biosynthesis of cell wall components in Capsicum annuum L”.

T1: CaNAC6 (GST-NAC6 fusion) (Capsicum annuum, UniProt A0A1U8EDX1 1-299)
T1 sequence: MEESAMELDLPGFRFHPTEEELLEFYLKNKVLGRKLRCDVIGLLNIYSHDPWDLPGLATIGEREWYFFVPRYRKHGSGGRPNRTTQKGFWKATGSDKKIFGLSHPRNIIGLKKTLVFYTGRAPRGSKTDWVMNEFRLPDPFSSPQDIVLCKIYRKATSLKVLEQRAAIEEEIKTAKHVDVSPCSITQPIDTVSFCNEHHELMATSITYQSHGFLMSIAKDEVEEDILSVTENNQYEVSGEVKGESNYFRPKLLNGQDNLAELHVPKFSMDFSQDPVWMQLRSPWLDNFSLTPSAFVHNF

B1: CaSLR1 SNBE1 mutant probe (dsDNA)
DNA 1: CTTTTGGATTTGTCTTGTAAGAAGATCAA
DNA 2: TTGATCTTCTTACAAGACAAATCCAAAAG
B2: CaSLR1 SNBE3 mutant probe (dsDNA)
DNA 1: TCTTAGTACTTATACCTCAAGGCGCAAGG
DNA 2: CCTTGCGCCTTGAGGTATAAGTACTAAGA
B3: CaSLR1 SNBE2 mutant probe (dsDNA)
DNA 1: GTTGTGTTTCTCTTTTATACGTTGGTCGT
DNA 2: ACGACCAACGTATAAAAGAGAAACACAAC

The target of this data set is T1, CaNAC6 (GST-NAC6 fusion). The data set is described as follows: EMSA; LightShift chemiluminescence EMSA kit (Bes5003), 6% acrylamide gel; buffer, salt, pH and temperature not stated. To be noted: protein: recombinant; tags: GST; chain copies: 2; label: biotin.
For B1, the binding result was “no binding”.

In the case of B2, the binding result is given as “no binding”.

As for B3, the binding result was “no binding”.
